Article PMC6640674

Biological target: BPSL1626 (Burkholderia pseudomallei strain K96423) (UniProt Q63UH6)
Assay: crystal structure

**Q.** “BPSL1626 (from UniProt Q63UH6 26-176) (natural protein)” was tested. Which stoichiometry N did it give?
**A.** 2
